This note sets out measurements from the supplement of paper PMC9170038.

The subject of this data set is MS2 coat protein. The experiment in a line: apparent KD of MS2 coat protein; designed switch direction (-1 OFF switch, 1 ON switch): -1; higher = weaker reporter binding. In a few lines: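 For each design, the apparent KD is the median over clusters of curves fitted to normalised cluster fluorescence. Clusters held RNA switches with common flanks, transcribed on Illumina chips by stalled E. coli RNA polymerase. These were titrated with SNAP-549-labelled MS2 coat protein, doubling from 0.7 or 1.5 nM to 3 µM, without input, with 200 uM small-molecule ligand, or with an oligonucleotide input.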

Setting [1] is: Eterna round: R95, input ligand: microRNA oligo, concentration not stated.
Where [2] appears, read: Eterna round: R95, input ligand: FMN 200 uM.
The mark [3] stands for this setting: Eterna round: R95, input ligand: none.
[4] abbreviates: input ligand: microRNA oligo, concentration not stated.

Consider “CCGGAAAUAGAGGAUAUAGUACUGGAUACAGUACUAGAAGGCUAUACAUGAGGAUCACCCAUGUGUCCUACCGG [Fiskers Ex 6 - 62] (puzzle: Exclusion 6)”, for which the “apparent KD of MS2 coat protein” value under setting [1] stood at 13.9 nM. As for “CCGGAAAUAGAGGAUAUCGUACUGGAUACAGUACGAGAAGGCUAUACAUGAGGAUCACCCAUGUGUCCUACCGG [Fiskers Ex 6 - 61] (puzzle: Exclusion 6)”, under setting [1], the “apparent KD of MS2 coat protein” value was 16.1 nM.

In the case of “CCGGAAAUGAAGGAUAUAGGAGUCGAUAGACACCUAGAAGGUCAUACAUGAGGAUCACCCAUGUGUCCUACCGG [Fiskers Ex 6 - 78] (puzzle: Exclusion 6)”, under setting [1], the “apparent KD of MS2 coat protein” value is 14.9 nM. Still for that read-out and setting: as for “CCGGAAAUGGAGGAUAUCGUAUCGGAUACGAUACGAGAAGGCUAUACAUGAGGAUCACCCAUGUGUCCUACCGG [Fiskers Ex 6 - 5] (puzzle: Exclusion 6)”, the figure is 12.6 nM. On to “CCGGAACAUGAGGAUCACCCAUGUCAGGAUAUGAAUAAAUCGUCGAAAGACGAUAAUCUCAGAAGGGACACCGG [Eli 4.28] (Eterna round: R97, puzzle: Exclusion 1)”, for which the “apparent KD of MS2 coat protein” value reads like this: (input ligand: FMN 200 uM) 22.7 nM; (input ligand: none) 19.6 nM. “CCGGAAGUACAGGAUAUCGUAUCGGAUACGAUACGAGAAGGGUAUACAUGAGGAUCACCCAUGUGUCCUACCGG [Fiskers Ex 6 - 55] (puzzle: Exclusion 6)”: under setting [1], the “apparent KD of MS2 coat protein” value is 19.6 nM.

Take “CCGGAUUAGGAGGAUAUAGGAGUCGAUAGACACCUAGAAGGCCUGACAUGAGGAUCACCCAUGUGUCCUACCGG [Mod of Eli 17 - Jieux - Exclusion 6] (Eterna round: R97, puzzle: Exclusion 6)”: the “apparent KD of MS2 coat protein” value (input ligand: FMN 200 uM) stood at 48.6 nM and the “apparent KD of MS2 coat protein” value (input ligand: none) turned out to be 22.9 nM.

Take “CCGGCUUACUAGGAUAUCAGAGUCGAAAGACUCUGAGAAGGAGUAACAUGAGGAUCACCCAUGUGUCCUACCGG [Mod of Eli 9 - Jieux - Exclusion 6] (Eterna round: R97, puzzle: Exclusion 6)”: the “apparent KD of MS2 coat protein” value by setting is: (input ligand: FMN 200 uM) 113 nM; (input ligand: none) 29.5 nM. Consider “CCGGCUUAGGAGGAUAUAGGAGUCGAUAGACACCUAGAAGGCCUGACAUGAGGAUCACCCAUGUGUCCUACCGG [Fiskers Ex 6 - 98] (puzzle: Exclusion 6)”, for which the “apparent KD of MS2 coat protein” value by setting is: under setting [2], 31.1 nM; under setting [1], 14.2 nM; under setting [3], 16.5 nM. Regarding “CCGGGUUAUGUUAGGAUAUGUAGGCCGCAACCGGAACAGAAGGGACAUGAGGAUCACCCAUGUGAUAUUCCCGG [Onxexe] (puzzle: Brourd's mod of Exclusion 4)”, the “apparent KD of MS2 coat protein” value under setting [1] worked out at 17.5 nM.

On to “CCGGUUGGCGCAGGAUAUACAUGAGGAUCACCCAUGUUCAUCAGGAUCACCGAUGAGUUUUUGUUGUAGAAGGGUGGCCCGGCC (Eterna round: R96, puzzle: Exclusion NG 2)”, for which the “apparent KD of MS2 coat protein” value under setting [4] was 24.2 nM.

For “CCGGUUGGCGCAGGAUAUACAUGAGGAUCACCCAUGUUCAUGAGGAUCAUCCAUGAGUUUUUGUUGUAGAAGGGUGGCCCGGCC (Eterna round: R96, puzzle: Exclusion NG 2)”, the “apparent KD of MS2 coat protein” value (input ligand: FMN 200 uM) came to 117 nM, the “apparent KD of MS2 coat protein” value under setting [4] turned out to be 60.8 nM and the “apparent KD of MS2 coat protein” value (input ligand: none) was 98.4 nM. With “CCGUGCAGGCUGCGGUCCUACAUGAGGAUCACCCAUGUGGUCCGGUGGCGUGGGUCGCCGGACUUGGCUCGUCUUGU [salish99_S_TOV1_R5_016] (Eterna round: R97, puzzle: Sensor, turn-off variant 1)”, the “apparent KD of MS2 coat protein” value came out at 75.1 nM (input ligand: FMN 200 uM) and 86.3 nM (input ligand: none).

“CCGUUCCGUGUAGGAUAUUGGCCUUCCUCGGGCCGAGAAGGACAUGAGGAUCACCCAUGUAUGCUAUUAUCGCGCGUGGCGCAC [Design 97] (Eterna round: R96, puzzle: Exclusion NG 1)”: the “apparent KD of MS2 coat protein” value is, setting by setting: (input ligand: FMN 200 uM) 158 nM; under setting [4], 22.6 nM; (input ligand: none) 39.1 nM. As for “CCUAAGAAAGGAUAUACACCGGUGGGCCGCUGAAUUCAGCAACAUGAGGAUCACCCAUGUAGAAGGUUUAUGGG [Veteso] (Eterna round: R96, puzzle: Exclusion 2)”, the “apparent KD of MS2 coat protein” value (input ligand: FMN 200 uM) was 346 nM, the “apparent KD of MS2 coat protein” value under setting [4] was determined as 147 nM and the “apparent KD of MS2 coat protein” value (input ligand: none) was 262 nM.

For “CCUAUGUGAGGAUAUCACUGGUCUUUUCAUUAGAUGAUCAGUGAGAAGGCACAUGAGGAUCACCCAUGUCAGUG [Ex4 - 3 - 53] (Eterna round: R96, puzzle: Exclusion 4)”, the “apparent KD of MS2 coat protein” value was 48 nM (input ligand: FMN 200 uM), 59.7 nM under setting [4] and 110 nM (input ligand: none). Turning to “CCUAUGUGAGGAUAUCACUGGUCUUUUCAUUAGAUGAUCAGUGAGAAGGCACAUGAGGAUCACCCAUGUCAGUG [Ex4 - 3 - 53] (puzzle: Exclusion 4)”, the “apparent KD of MS2 coat protein” value under setting [1] is 71.8 nM.

In the case of “CCUAUGUUAGGAUAUUGCUCUCAGCCGUAGGAGGACAUGACCGAGAAGGAACAUGAGGAUCACCCAUGUGUAUU [Eternabot (L2) Solution 53] (Eterna round: R97, puzzle: Exclusion 4)”, the “apparent KD of MS2 coat protein” value runs as follows: (input ligand: FMN 200 uM) 17.4 nM; (input ligand: none) 24 nM. The corresponding values for “CCUCAACAGGUCAGGAUAUACCCAACGGCGGACGGGUAGAAGGGACAUGAGGAUCACCCAUGUCCAGAGGUGAG [Eternabot (Original) Solution 11] (Eterna round: R97, puzzle: Brourd's mod of Exclusion 4)” are 45.5 nM and 16.9 nM. Consider “CCUCAACAGUAGGAUAUCAUCAAACUAUUGUGAUGAGAAGGACUGACAUGAGGAUCACCCAUGUUAACGUGAUG [Exclusion 6 - 6:c] (puzzle: Exclusion 6)”, for which the “apparent KD of MS2 coat protein” value by setting is: under setting [2], 70.8 nM; under setting [1], 21 nM; under setting [3], 20.4 nM.

Take “CCUCAACAGUAGGAUAUCAUCAAACUAUUGUGAUGAGAAGGACUGACAUGAGGAUCACCCAUGUUAACGUGAUG [Mod of Brourd - Jieux - Exclusion 6] (Eterna round: R97, puzzle: Exclusion 6)”: the “apparent KD of MS2 coat protein” value is 176 nM (input ligand: FMN 200 uM) and 35.8 nM (input ligand: none).

Consider “CCUCACAGAGGAUAUACGUCCACUGAACCCAUGAGGUUGCCACAUGAGGAUCACCCAUGUAGAAGGCUGUGCUG [Mageanma] (puzzle: Exclusion 2)”, for which the “apparent KD of MS2 coat protein” value under setting [1] was determined as 18.9 nM. With “CCUCCACAGGAGGAUAUCAUCAAACUAUUGUGAUGAGAAGGCCUGACAUGAGGAUCACCCAUGUUAACGUGAUG [Mod of Brourd 8 - Jieux - Exclusion 6] (Eterna round: R97, puzzle: Exclusion 6)”, the “apparent KD of MS2 coat protein” value was found to be 209 nM (input ligand: FMN 200 uM) and 58.1 nM (input ligand: none). “CCUCCACAUGAGGAUCACCCAUGUCAGGAUAUCGUGUGCGCGUUUUCGGUCUUUCGCGCGAGAAGGGACGACUG (Eterna round: R96, puzzle: Exclusion 1)”: the “apparent KD of MS2 coat protein” value by setting is: (input ligand: FMN 200 uM) 32 nM; under setting [4], 22.5 nM; (input ligand: none) 30.2 nM. As to “CCUCCACAUGAGGAUCACCCAUGUCAGGAUAUCGUGUGCGCGUUUUCGGUCUUUCGCGCGAGAAGGGACGACUG (puzzle: Exclusion 1)”, the “apparent KD of MS2 coat protein” value under setting [1] is 24.7 nM.

Regarding “CCUCCACAUGAGGAUCACCCAUGUCAGGAUAUCGUGUGCGCGUUUUCGGUCUUUCGUGCGAGAAGGGACGUCUG (puzzle: Exclusion 1)”, under setting [1], the “apparent KD of MS2 coat protein” value was 32.6 nM. As to “CCUCCACAUGAGGAUCACCCAUGUCAGGAUAUCGUGUGUUUUUUUUCGGCCGCGCGUGCGAGAAGGGACGUCUU (puzzle: Exclusion 1)”, the “apparent KD of MS2 coat protein” value under setting [1] stood at 19.1 nM. Take “CCUCCCGCCGUCAGGAUAUGCCGUACCGCUGCGCUCCAGAAGGCACUUGAGGAUCACCCAAGUACCCGUGAGGC [salish99_bmod_ex4_r4_009] (Eterna round: R97, puzzle: Brourd's mod of Exclusion 4)”: the “apparent KD of MS2 coat protein” value runs as follows: (input ligand: FMN 200 uM) 16 nM; (input ligand: none) 16.1 nM.

Regarding “CCUCGACAUGAGGAUCACCCAUGUCAGGAUAUUGUGUAUCGGGUUUUUUACCGAAAGGCGAGAAGGGAUGUGUG [LRO-Excl1-11] (puzzle: Exclusion 1)”, the “apparent KD of MS2 coat protein” value under setting [1] was determined as 15 nM. Same read-out and setting: as for “CCUCGACAUGAGGAUCACCCAUGUCAGGAUAUUGUGUAUCGGGUUUUUUACGGAAAGGCGAGAAGGGAUGUGUG [LRO-Excl1-10] (puzzle: Exclusion 1)”, the figure is 15.5 nM.

“CCUCGGUCAGGAUAUGGGCCAUGCGAUGAUGAAGCCUGGCGCCAGAAGGGACAUGAGGAUCACCCAUGUCCGUA [Eternabot (Original) Solution 37] (Eterna round: R97, puzzle: Exclusion 4)”: the “apparent KD of MS2 coat protein” value reads like this: (input ligand: FMN 200 uM) 71.3 nM; (input ligand: none) 17.2 nM. “CCUCUAACCUAGGAUAUAGGUAGACCUAGUCGCCUAGAAGGAGGUACAUGAGGAUCACCCAUGUAUAUUGGGCU [Inmaor] (puzzle: Exclusion 6)”: the “apparent KD of MS2 coat protein” value under setting [1] stood at 173 nM. With “CCUCUACAUGAGGAUCACCCAUGUGAGGAUAUCAGUGCAAAAGGCACGUAAUAAAUCGUGAGAAGGCACAUGGG [EX1 A.15] (Eterna round: R97, puzzle: Exclusion 1)”, the “apparent KD of MS2 coat protein” value was determined as 24 nM (input ligand: FMN 200 uM) and 112 nM (input ligand: none). For the sequence “CCUCUAUUUGUGAGGAUAUCGGUAAACUGGAUUGUCGAGAAGGCACAUGAGGAUCACCCAUGUAUUGAACAGCA [JR_BMEx4_Sub021] (Eterna round: R97, puzzle: Brourd's mod of Exclusion 4)”, the “apparent KD of MS2 coat protein” value is, setting by setting: (input ligand: FMN 200 uM) 203 nM; (input ligand: none) 31.2 nM.

In the case of “CCUCUGUCAGGAUAUCGUGCAUACAACGAAAGUUCUAUGUGCGAGAAGGGACAUGAGGAUCACCCAUGUUUGCG [Omei Ex4 A21] (Eterna round: R97, puzzle: Exclusion 4)”, the “apparent KD of MS2 coat protein” value was 225 nM (input ligand: FMN 200 uM) and 62.5 nM (input ligand: none).
